# Values joined by “and” are separate entries in the source; they are usually repeats but may differ in a detail not shown here. Equal entries are not always repeated. Where two headings read alike, the source gives them in different places.
# T1: Fas (CD95/APO-1) on Jurkat cells (human, UniProt P25445 26-335)
# T1 sequence (looked up): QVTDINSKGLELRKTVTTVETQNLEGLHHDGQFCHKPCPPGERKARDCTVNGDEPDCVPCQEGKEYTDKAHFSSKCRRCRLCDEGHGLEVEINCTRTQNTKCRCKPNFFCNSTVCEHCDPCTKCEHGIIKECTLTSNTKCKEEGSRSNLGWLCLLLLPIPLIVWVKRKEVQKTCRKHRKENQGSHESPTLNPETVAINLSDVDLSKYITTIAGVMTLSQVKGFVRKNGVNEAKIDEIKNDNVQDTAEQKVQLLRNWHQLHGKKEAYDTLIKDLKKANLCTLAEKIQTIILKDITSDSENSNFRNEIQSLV
# T2: cleaved FasL (cFasL) (human, UniProt P48023 127-281)
# T2 construct: range 127-281; Supernatant of COS cells transfected with wild-type FasL; also called spontaneously cleaved membrane FasL; metalloprotease-cleaved FasL
# T2 sequence (looked up): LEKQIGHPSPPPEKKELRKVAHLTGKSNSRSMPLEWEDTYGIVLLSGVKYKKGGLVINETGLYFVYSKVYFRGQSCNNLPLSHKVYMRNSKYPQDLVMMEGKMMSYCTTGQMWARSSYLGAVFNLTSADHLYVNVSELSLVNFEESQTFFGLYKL
# B1: polymeric Flag-tagged soluble FasL (pfFasL) (ligand, not shown: small tags and cut ends)
# chain: IPDSQTKVFPQDKVILVGSDITFCCVSQEKVLSALIGHTNCPLIHLDGENVAIKIRNISVSASSGTNVVFTTEDNIFGTVISRALQKELAELRESTSQMHTASSLEKQIGHPSPPPEKKELRKVAHLTGKSNSRSMPLEWEDTYGIVLLSGVKYKKGGLVINETGLYFVYSKVYFRGQSCNNLPLSHKVYMRNSKYPQDLVMMEGKMMSYCTTGQMWARSSYLGAVFNLTSADHLYVNVSELSLVNFEESQTFFGLYKL
# B2: IgFasL (ligand)
# chain: B1 chain
# notes: also called pFasL; polymeric FasL
# B3: D1IgD2FasL (ligand, human)
# chain: QKKGAPHDLKCVTNNLQVWNCSWKAPSGTGRGTDYEVCIENRSRSCYQLEKTSIKIPALSHGDYEITINSLHDFGSSTSKFTLNEQNVSLIPDTPEILNLSADFSTSTLYLKWNDRGSVFPHRSNVIWEIKVLRKESMELVKLVTHNTTLNGKDTLHHWSWASDMPLECAIHFVEIRCYIDNLHFSGLEEWSDWSPVKNISWIPDSQTKVFPQDKVILVGSDITFCCVSQEKVLSALIGHTNCPLIHLDGENVAIKIRNISVSASSGTNVVFTTEDNIFGTVIFAGYPPDTPQQLNCETHDLKEIICSWNPGRVTALVGPRATSYTLVESFSGKYVRLKRAEAPTNESYQLLFQMLPNQEIYNFTLNAHNPLGRSQSTILVNITEKVYPHTPTSFKVKDINSTAVKLSWHLPGNFAKINFLCEIEIKKSNSVQEQRNVTIKGVENSSYLVALDKLNPYTLYTFRIRCSTETFWKWSKWSNKKQHLTTEASQKELAELRESTSQMHTASSLEKQIGHPSPPPEKKELRKVAHLTGKSNSRSMPLEWEDTYGIVLLSGVKYKKGGLVINETGLYFVYSKVYFRGQSCNNLPLSHKVYMRNSKYPQDLVMMEGKMMSYCTTGQMWARSSYLGAVFNLTSADHLYVNVSELSLVNFEESQTFFGLYKL
# B4: Recombinant Fas-Fc (R&Dsystems) (Fc fusion, UniProt P25445 26-173, looked up)
# chain: QVTDINSKGLELRKTVTTVETQNLEGLHHDGQFCHKPCPPGERKARDCTVNGDEPDCVPCQEGKEYTDKAHFSSKCRRCRLCDEGHGLEVEINCTRTQNTKCRCKPNFFCNSTVCEHCDPCTKCEHGIIKECTLTSNTKCKEEGSRSN
# notes: not shown: Fc part
# B5: D2FasL (ligand, human)
# chain: TPQQLNCETHDLKEIICSWNPGRVTALVGPRATSYTLVESFSGKYVRLKRAEAPTNESYQLLFQMLPNQEIYNFTLNAHNPLGRSQSTILVNITEKVYPHTPTSFKVKDINSTAVKLSWHLPGNFAKINFLCEIEIKKSNSVQEQRNVTIKGVENSSYLVALDKLNPYTLYTFRIRCSTETFWKWSKWSNKKQHLTTEASQKELAELRESTSQMHTASSLEKQIGHPSPPPEKKELRKVAHLTGKSNSRSMPLEWEDTYGIVLLSGVKYKKGGLVINETGLYFVYSKVYFRGQSCNNLPLSHKVYMRNSKYPQDLVMMEGKMMSYCTTGQMWARSSYLGAVFNLTSADHLYVNVSELSLVNFEESQTFFGLYKL
# notes: domain: D2
# B6: soluble FasL (sFasL) (ligand)
# chain: QKELAELRESTSQMHTASSLEKQIGHPSPPPEKKELRKVAHLTGKSNSRSMPLEWEDTYGIVLLSGVKYKKGGLVINETGLYFVYSKVYFRGQSCNNLPLSHKVYMRNSKYPQDLVMMEGKMMSYCTTGQMWARSSYLGAVFNLTSADHLYVNVSELSLVNFEESQTFFGLYKL
# What was measured:
# HLA-pfFasL (human) = assay: cell-based or functional assay
# [1] = target: T1, Fas (CD95/APO-1) on Jurkat cells; assay: cell-based or functional assay
# [2] = target: T1, Fas (CD95/APO-1) on Jurkat cells; assay: cell-based or functional assay; remark: listed apart in the source
# [3] = target: B4; assay: SPR (BIAcore 3000), Fas-Fc immobilised on CM5 chip
# Description: (§1) The experiments were carried out on a BIAcore 3000 optical biosensor (GE healthcare, Chalfont, UK). The FasL chimeras were produced as COS supernatants in Opti-MEM medium, concentrated 100 times, dialyzed against PBS and sterilized by filtration. Recombinant Fas-Fc (R&Dsystems, Minneapolis, Minn.) was covalently coupled to a carboxymethyl dextran flow cell (CM5, BIAcore) following the manufacturer's recommendations. The level of immobilization was 2,000 resonance units (RU). Binding of the FasL chimeras was assayed at concentrations ranging from 0.2 to 100 nM for IgFasL, 0.2 to 44 nM for cFasL, 0.2 to 37.5 nM for D2FasL, and 0.25 to 8 nM for D1IgD2FasL, in Hepes-buffered saline, at a 30 μl/min flow rate. Association was monitored for 5 min before initiating the dissociation phase for another 11 min with Hepes-buffered saline. The flow cell was regenerated with 4M MgCl2. The sensorgrams were analyzed using the BIAeval 4.1 software (BIAcore). The background of the Opti-MEM medium was at 30 RU.
# (§2) The affinity of the FasL chimeras for Fas was measured using the surface plasmon resonance Biacore® method, against recombinant Fas-Fc immobilized on a chip. IgFasL, D2FasL, D1IgD2FasL and sFasL as a control, were produced as supernatants in COS cells cultured in serum-free medium, concentrated 100 times, and dialysed against PBS.
# [4] = target: B4; assay: SPR (BIAcore 3000), Fas-Fc immobilised on CM5 chip, FasL construct as analyte
# Description: as §1, §2
# [5] = target: B4; assay: SPR (BIAcore), Fas-Fc immobilised on chip, FasL construct as analyte; reference cFasL
# Description: as §1, §2
# [6] = target: T1, Fas (CD95/APO-1) on Jurkat cells; assay: cell-based or functional assay; remark: listed apart in the source
# D2FasL = target: B5; assay: SPR (BIAcore 3000), Fas-Fc immobilised on CM5 chip, FasL construct as analyte
# Description: as §1, §2
# D1IgD2FasL = target: B3; assay: as above
# Description: as §1, §2
# cleaved FasL (cFasL) = target: T2, cleaved FasL (cFasL); assay: as above
# Description: as §1, §2
molecule,measurement,setting,value
anti-β2 microglobulin mAb (clone B2M-01) (antibody),enhancement of the cytotoxicity of HLA-pfFasL on CD32+ L-cells by pre-formed immune complexes,HLA-pfFasL (human),2.5 fold
Flag-tagged sFasL (sfFasL) (from UniProt P48023 108-281) (ligand),cytotoxicity EC50 on the Jurkat cell line (MTT assay),[1],> 3 mg/L
same,"cytotoxicity on Jurkat cells, activity against pfFasL (fold less active than pfFasL)",[1],> 5000
Anti-human Fas agonistic mAb 7C11 (IgM) (antibody),concentration required to kill 50% of the Jurkat cells,[1],2 ng/mL
anti-Flag mAb (clone M2) (antibody),enhancement of the cytotoxicity of HLA-pfFasL on CD32+ L-cells by pre-formed immune complexes,HLA-pfFasL (human),2.5 fold
B1,cytotoxicity EC50 on the Jurkat cell line (MTT assay),[2],0.6 ng/mL and 15.5 pM
B2,fold difference of Kd against cFasL,[3],6 fold
same,Kd,[4],0.0116 µM
same,koff,[4],0.00041 s⁻¹
same,kon,[4],25000 M⁻¹ s⁻¹
same,fold affinity against cFasL (Kd ratio),[5],6 fold
B3,"cell death of Jurkat cells (MTT assay), potency against IgFasL",[6],125 fold less potent than IgFasL
B4,Kd,D2FasL,0.0385 µM
same,koff,D2FasL,0.006 s⁻¹
same,kon,D2FasL,160000 M⁻¹ s⁻¹
same,Kd,D1IgD2FasL,0.0256 µM
same,koff,D1IgD2FasL,0.0033 s⁻¹
same,kon,D1IgD2FasL,130000 M⁻¹ s⁻¹
same,Kd,cleaved FasL (cFasL),0.0694 µM
same,koff,cleaved FasL (cFasL),0.0059 s⁻¹
same,kon,cleaved FasL (cFasL),84000 M⁻¹ s⁻¹
B5,"cell death of Jurkat cells (MTT assay), potency against IgFasL",[6],12.5 fold less potent than IgFasL
same,fold difference of Kd against cFasL,[3],2 fold
same,fold affinity against cFasL (Kd ratio),[5],2 fold
B6,"cytotoxicity on Jurkat cells, activity against pfFasL",[6],≥ 5000 fold less active than pfFasL
same,cytotoxicity EC50 on the Jurkat cell line (MTT assay),[2],> 3 mg/L

# From patent US20150044237A1 (CENTRE NATIONAL DE LA RECHERCHE SCIENTIFIQUE, published 2015)
